# According to PMC5715112 (2017):
# B1: VH59 fused to the VP16 activation domain (pEF-VP16, CHO cells) / GAL4 DNA binding domain (DBD)-LEDGF IBD fusion (pM1, CHO cells) [not stated] (parent complex)
# chain 1: EVQLLESGGGLVQPGGSLRLSCAASGFTFSTFSMNWVRQAPGKGLEWVSYISRTSKTIYYADSVKGRFTISRDNSKNTLYLQMNSLRAEDTAVYYCARGGWALGDEIPSSFLEFDYWGQGTLVTVS
# chain 2: ETSMDSRLQRIHAEIKNSLKIDNLDVNRCIEALDELASLQVTMQQAQKHTEMITTLKKIRRFKVSQVIMEKSTMLYNKFKNMFLVGE
# Variants of: B1
# Assay: mammalian two-hybrid luciferase reporter assay in CHO cells; 48 h after transfection; Firefly luciferase normalised to Renilla; read off a plot
row,Variant,response
1,chain 2 ETSMDSRLQRIHAEIKNSLKIANLDVNRCIEALDELASLQVTMQQAQKHTEMITTLKKIRRFKVSQVIMEKSTMLYNKFKNMFLVGE [chain 2 D22A],~0.79
2,chain 2 ETSMDSRLQRIHAEIKNSLKIDNADVNRCIEALDELASLQVTMQQAQKHTEMITTLKKIRRFKVSQVIMEKSTMLYNKFKNMFLVGE [chain 2 L24A],~0.02
3,chain 2 ETSMDSRLQRIHAEIKNSLAIDNLDVNRCIEALDELASLQVTMQQAQKHTEMITTLKKIRRFKVSQVIMEKSTMLYNKFKNMFLVGE [chain 2 K20A],~0.71
4,chain 2 ETSMDSRLQRIHAEIKNSLKIDNLDVNRCIEALDELASLQVTMQQAQKHTEMITTLKKIRRFAVSQVIMEKSTMLYNKFKNMFLVGE [chain 2 K63A],~0.35
5,chain 2 ETSMDSRLQRIHAEIKNSLKIDNLDVNRCIEALDELASLQVTMQQAQKHTEMITTLKKIRRAKVSQVIMEKSTMLYNKFKNMFLVGE [chain 2 F62A],~0.05
6,chain 2 ETSMDSRLQRIHAEIKNSLKIDNLDVNRCIEALDELASLQVTMQQAQKHTEMITTLKAIRRFKVSQVIMEKSTMLYNKFKNMFLVGE [chain 2 K58A],~0.09
7,chain 2 ETSMDSRLQRIHAEIKNSLKIDNLDVNRCIEALDELASLQVTMQQAQKHTEMITTLKKIRAFKVSQVIMEKSTMLYNKFKNMFLVGE [chain 2 R61A],~2
8,chain 2 ETSMDSRLQRIHAEIKNSLKIDNLDVNRCIEALDELASLQVTMQQAQKHTEMITTLKKIRRFKASQVIMEKSTMLYNKFKNMFLVGE [chain 2 V64A],~0.12
9,chain 2 ETSMDSRLQRIHAEIKNSAKIDNLDVNRCIEALDELASLQVTMQQAQKHTEMITTLKKIRRFKVSQVIMEKSTMLYNKFKNMFLVGE [chain 2 L19A],~0.08
10,chain 2 ETSMDSRLQRIHAEIKNSLKADNLDVNRCIEALDELASLQVTMQQAQKHTEMITTLKKIRRFKVSQVIMEKSTMLYNKFKNMFLVGE [chain 2 I21A],~0.05

# Variants of: B1
# Assay: mammalian two-hybrid luciferase reporter assay in CHO cells; 48 h after transfection; Firefly/Renilla luciferase; n = 3; read off a plot
row,Variant,response
1,chain 1 EVQLLESGGGLVQPGGSLRLSCAASGFTFSTFSMNWVRQAPGKGLEWVSYISRTSKTIYYADSVKGRFTISRDNSKNTLYLQMNSLRAEDTAVYACARGGWALGDEIPSSFLEFDYWGQGTLVTVS [chain 1 Y95A],~0.04
2,chain 1 EVQLLESGGGLVQPGGSLRLSCAASGFTFSTFSMNWVRQAPGKGAEWVSYISRTSKTIYYADSVKGRFTISRDNSKNTLYLQMNSLRAEDTAVYYCARGGWALGDEIPSSFLEFDYWGQGTLVTVS [chain 1 L45A],~1.2
3,chain 1 EVQLLESGGGLVQPGGSLRLSCAASGFTFSTFSMNWVRQAPGKGLEWVSYISRTSKTIYYADSVKGRFTISRDNSKNTLYLQMNSLRAEDTAVYYCARGGWALGDEIPSSFLEFAYWGQGTLVTVS [chain 1 D115A],~0.04
4,chain 1 EVQLLESGGGLVQPGGSLRLSCAASGFTFSTFSMNWVRQAPGKGLEWVSYISRTSKTIYYADSVKGRFTISRDNSKNTLYLQMNSLRAEDTAVYYCARGGWALGDEIPSSFLEFDAWGQGTLVTVS [chain 1 Y116A],~0.92
5,chain 1 EVQLLESGGGLVQPGGSLRLSCAASGFTFSTFSMNWVRQAPGKGLEWVSYISRTSKTIYYADSVKGRFTISRDNSKNTLYLQMNSLRAEDTAVYYCARGGWALGDEIPSSFLEFDYAGQGTLVTVS [chain 1 W117A],~0.04

# Variants of: B1
# Assay: as above
# Remark: another data set of the same source
row,Variant,response
1,chain 1 EVQLLESGGGLVQPGGSLRLSCAASGFTFSTFSMNWVRQAPGKGLEWVSYISRTSKTIYYADSVKGRFTISRDNSKNTLYLQMNSLRAEDTAVYYCARGGWALGDEIPSSALEFDYWGQGTLVTVS [chain 1 F111A],~0.04
2,chain 1 EVQLLESGGGLVQPGGSLRLSCAASGFTFSTFSMNWVRQAPGKGLEWVSYISRTSKTIYYADSVKGRFTISRDNSKNTLYLQMNSLRAEDTAVYYCARGGWALGDEIPASFLEFDYWGQGTLVTVS [chain 1 S109A],~0.46
3,chain 1 EVQLLESGGGLVQPGGSLRLSCAASGFTFSTFSMNWVRQAPGKGLEWVSYISRTSKTIYYADSVKGRFTISRDNSKNTLYLQMNSLRAEDTAVYYCARGGWALGDEIASSFLEFDYWGQGTLVTVS [chain 1 P108A],~0.04
4,chain 1 EVQLLESGGGLVQPGGSLRLSCAASGFTFSTFSMNWVRQAPGKGLEWVSYISRTSKTIYYADSVKGRFTISRDNSKNTLYLQMNSLRAEDTAVYYCARGGWALGDEIPSAFLEFDYWGQGTLVTVS [chain 1 S110A],~0.04
5,chain 1 EVQLLESGGGLVQPGGSLRLSCAASGFTFSTFSMNWVRQAPGKGLEWVSYISRTSKTIYYADSVKGRFTISRDNSKNTLYLQMNSLRAEDTAVYYCARGGWALGDEIPSSFAEFDYWGQGTLVTVS [chain 1 L112A],~0.05
